Results on 1 molecule are retold here after PMC10849960.

Assay [1] addresses RFdiffusion de novo PTH binder (picomolar). The assay is described as follows: affinity purification with mass spectrometry; binder-conjugated beads capture PTH from human plasma supplemented with PTH; recovery by LC-MS/MS of the N-terminal tryptic peptide; triplicates.
The target is the same in assay [2]. The assay is described as follows: affinity purification with mass spectrometry; binder-conjugated magnetic beads capture the peptide from buffer; recovery by LC-MS/MS (tryptic N-terminal peptide for PTH, intact peptide for GCG); triplicates.

Ends that are not written are not given here.

B1: parathyroid hormone (PTH) (peptide)
peptide: SVSEIQLMHNLGKHLNSMERVEWLRKKLQDVHNF
modifications: also: fluorescently labelled, label and position not given here
In the case of B1, the results for the percent recovery in assay [1] and in assay [2] were 43% and 53%, respectively.
